{"source": "patent US20150038419A1", "about": "(US Dept. of Health and Human Services, published 2015)", "binders": {"B1": {"name": "recombinant Simukunin (rSV-66), Simulium vittatum SV-66 without signal peptide, His-tagged, expressed in E. coli (other)", "chain": "QENVCNLPVDEGVCRALFKRFYYEPATDSCKEFYYGGCEGNGNRFKSKKECILKCQKNKQLIKTRKRKPKKTTKPPIPIISLD", "notes": "also called rSimukunin; WT rSimukunin; not shown: His tag(s) from vector pET-30 Ek/LIC ('C-terminal double His tags')"}}, "key": {"[1]": {"target": "T1, elastase (human; for SPR purified from human sputum) (human, UniProt P08246 30-267)", "T1 sequence (looked up)": "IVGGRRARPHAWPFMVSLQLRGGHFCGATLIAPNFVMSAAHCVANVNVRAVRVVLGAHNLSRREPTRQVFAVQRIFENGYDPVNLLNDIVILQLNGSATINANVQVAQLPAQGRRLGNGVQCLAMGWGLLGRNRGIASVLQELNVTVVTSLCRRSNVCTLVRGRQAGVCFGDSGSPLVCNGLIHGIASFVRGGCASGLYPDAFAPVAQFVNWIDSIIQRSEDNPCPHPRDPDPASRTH", "experiment": "cell-based or functional assay"}, "[2]": {"target": "T2, cathepsin G (human) (human, UniProt P08311 21-244)", "T2 sequence (looked up)": "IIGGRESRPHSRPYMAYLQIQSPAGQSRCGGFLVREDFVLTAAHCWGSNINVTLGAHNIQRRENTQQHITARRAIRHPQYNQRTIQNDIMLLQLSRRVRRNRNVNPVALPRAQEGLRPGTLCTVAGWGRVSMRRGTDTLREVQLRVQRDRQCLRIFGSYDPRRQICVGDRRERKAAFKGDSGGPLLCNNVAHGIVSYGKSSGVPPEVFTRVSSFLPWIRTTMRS", "experiment": "cell-based or functional assay"}, "[3]": {"target": "plasmin (human) (human, UniProt P00747 97-810)", "sequence (P00747 97-810)": "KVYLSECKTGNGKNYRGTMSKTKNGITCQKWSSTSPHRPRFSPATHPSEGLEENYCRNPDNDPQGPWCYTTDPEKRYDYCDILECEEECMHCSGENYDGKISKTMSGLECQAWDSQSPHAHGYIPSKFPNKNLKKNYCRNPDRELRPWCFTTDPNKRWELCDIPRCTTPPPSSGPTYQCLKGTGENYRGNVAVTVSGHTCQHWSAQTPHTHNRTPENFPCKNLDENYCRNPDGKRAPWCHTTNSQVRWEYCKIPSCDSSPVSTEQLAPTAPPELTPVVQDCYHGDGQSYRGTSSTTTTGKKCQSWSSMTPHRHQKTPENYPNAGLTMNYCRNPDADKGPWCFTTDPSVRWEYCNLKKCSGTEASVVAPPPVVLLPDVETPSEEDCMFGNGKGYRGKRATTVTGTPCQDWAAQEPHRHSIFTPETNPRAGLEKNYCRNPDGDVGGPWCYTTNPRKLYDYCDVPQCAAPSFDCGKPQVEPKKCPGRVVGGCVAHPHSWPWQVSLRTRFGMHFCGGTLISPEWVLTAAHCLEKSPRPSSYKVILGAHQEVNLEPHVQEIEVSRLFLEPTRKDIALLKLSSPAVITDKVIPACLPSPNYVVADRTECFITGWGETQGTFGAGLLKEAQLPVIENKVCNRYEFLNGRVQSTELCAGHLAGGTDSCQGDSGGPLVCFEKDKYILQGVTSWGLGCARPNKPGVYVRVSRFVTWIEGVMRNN", "experiment": "cell-based or functional assay"}, "[4]": {"target": "kallikrein (human) (human, UniProt P03952 20-638, limits assumed)", "sequence (P03952 20-638 limits assumed)": "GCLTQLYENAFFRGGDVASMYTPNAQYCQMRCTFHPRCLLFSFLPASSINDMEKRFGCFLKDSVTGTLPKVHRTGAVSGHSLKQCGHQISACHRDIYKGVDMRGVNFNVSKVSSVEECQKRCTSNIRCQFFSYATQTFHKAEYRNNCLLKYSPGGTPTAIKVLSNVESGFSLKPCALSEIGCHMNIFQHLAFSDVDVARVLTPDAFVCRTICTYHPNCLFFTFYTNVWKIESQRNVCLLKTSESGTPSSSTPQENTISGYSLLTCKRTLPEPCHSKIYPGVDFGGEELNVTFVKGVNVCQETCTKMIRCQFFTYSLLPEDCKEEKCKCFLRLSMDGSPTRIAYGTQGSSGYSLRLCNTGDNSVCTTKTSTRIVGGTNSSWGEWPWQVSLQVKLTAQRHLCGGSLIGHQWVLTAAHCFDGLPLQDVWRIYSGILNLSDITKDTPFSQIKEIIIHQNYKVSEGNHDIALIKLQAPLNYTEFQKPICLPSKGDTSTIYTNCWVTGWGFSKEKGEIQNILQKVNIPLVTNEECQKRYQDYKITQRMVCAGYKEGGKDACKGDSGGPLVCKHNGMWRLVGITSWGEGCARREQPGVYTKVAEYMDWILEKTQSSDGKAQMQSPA", "experiment": "cell-based or functional assay"}, "[5]": {"target": "trypsin (sequencing grade, Roche) (human)", "sequence (P00760 24-246)": "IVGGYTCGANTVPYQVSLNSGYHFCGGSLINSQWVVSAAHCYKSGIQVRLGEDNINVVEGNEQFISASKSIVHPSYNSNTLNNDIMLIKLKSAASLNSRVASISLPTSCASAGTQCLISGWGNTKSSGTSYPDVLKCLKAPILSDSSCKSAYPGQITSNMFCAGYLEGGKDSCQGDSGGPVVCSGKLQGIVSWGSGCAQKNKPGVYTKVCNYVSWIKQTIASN", "experiment": "cell-based or functional assay"}, "[6]": {"target": "skin β-tryptase (human) (human, UniProt Q15661 31-275)", "sequence (Q15661 31-275)": "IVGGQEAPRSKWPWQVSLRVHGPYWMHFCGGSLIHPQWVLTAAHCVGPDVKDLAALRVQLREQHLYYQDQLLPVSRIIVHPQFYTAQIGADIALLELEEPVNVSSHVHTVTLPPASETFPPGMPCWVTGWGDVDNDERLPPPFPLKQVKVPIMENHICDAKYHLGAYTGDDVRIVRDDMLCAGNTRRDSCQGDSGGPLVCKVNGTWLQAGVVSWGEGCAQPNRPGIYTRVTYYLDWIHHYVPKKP", "experiment": "cell-based or functional assay"}, "[7]": {"target": "T3, human activated coagulation factor X (FXa) (human, UniProt P00742 41-179; P00742 235-488)", "T3 sequence (P00742 41-179 limits assumed, chain 1 of 2)": "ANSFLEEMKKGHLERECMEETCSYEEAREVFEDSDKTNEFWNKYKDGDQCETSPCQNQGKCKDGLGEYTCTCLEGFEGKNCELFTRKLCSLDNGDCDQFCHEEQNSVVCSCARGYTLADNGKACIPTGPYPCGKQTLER", "T3 sequence (P00742 235-488 limits assumed, chain 2 of 2)": "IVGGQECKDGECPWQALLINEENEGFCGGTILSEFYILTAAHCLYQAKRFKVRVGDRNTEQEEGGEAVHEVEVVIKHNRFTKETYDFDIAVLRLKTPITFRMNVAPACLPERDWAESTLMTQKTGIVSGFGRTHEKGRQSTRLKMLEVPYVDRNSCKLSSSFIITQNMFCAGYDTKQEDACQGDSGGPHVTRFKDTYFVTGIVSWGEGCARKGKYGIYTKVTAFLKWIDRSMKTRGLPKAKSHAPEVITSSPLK", "experiment": "cell-based or functional assay"}, "[8]": {"target": "coagulation Factor XIa (FXIa) (human, UniProt P03951 19-625)", "sequence (P03951 19-625 limits assumed)": "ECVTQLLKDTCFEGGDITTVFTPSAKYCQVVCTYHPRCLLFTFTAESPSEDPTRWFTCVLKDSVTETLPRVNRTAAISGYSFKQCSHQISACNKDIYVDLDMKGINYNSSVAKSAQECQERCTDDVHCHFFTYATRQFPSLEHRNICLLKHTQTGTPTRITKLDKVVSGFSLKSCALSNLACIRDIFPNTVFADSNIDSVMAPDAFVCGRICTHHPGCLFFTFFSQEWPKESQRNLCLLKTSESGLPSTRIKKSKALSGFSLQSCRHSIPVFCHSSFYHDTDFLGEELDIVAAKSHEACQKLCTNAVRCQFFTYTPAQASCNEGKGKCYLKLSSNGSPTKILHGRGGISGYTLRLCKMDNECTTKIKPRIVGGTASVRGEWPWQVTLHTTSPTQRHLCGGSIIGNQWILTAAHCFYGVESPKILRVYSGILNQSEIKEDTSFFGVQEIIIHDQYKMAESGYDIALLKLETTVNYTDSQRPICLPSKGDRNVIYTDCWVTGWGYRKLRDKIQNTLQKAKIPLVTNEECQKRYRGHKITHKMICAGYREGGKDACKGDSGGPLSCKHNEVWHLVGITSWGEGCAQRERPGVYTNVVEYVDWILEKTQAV", "experiment": "cell-based or functional assay"}, "[9]": {"target": "T4, coagulation Factor VIIa (FVIIa), recombinant (UniProt P08709 61-466)", "T4 construct": "mature", "T4 sequence (looked up)": "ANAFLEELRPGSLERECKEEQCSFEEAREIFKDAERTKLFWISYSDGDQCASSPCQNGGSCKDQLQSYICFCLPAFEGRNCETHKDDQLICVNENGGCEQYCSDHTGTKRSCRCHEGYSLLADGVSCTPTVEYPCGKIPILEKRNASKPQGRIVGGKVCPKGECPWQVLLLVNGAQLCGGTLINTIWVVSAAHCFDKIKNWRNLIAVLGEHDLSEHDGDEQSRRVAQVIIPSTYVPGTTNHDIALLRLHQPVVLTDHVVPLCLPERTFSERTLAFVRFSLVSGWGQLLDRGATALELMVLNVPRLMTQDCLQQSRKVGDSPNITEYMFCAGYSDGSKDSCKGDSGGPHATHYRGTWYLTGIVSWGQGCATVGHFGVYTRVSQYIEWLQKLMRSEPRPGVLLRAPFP", "experiment": "SPR (Biacore T100), rSimukunin immobilized on CM5"}, "[10]": {"target": "T5, coagulation Factor XIIIa (FXIIIa) (UniProt P00488 39-732, limits assumed)", "T5 construct": "mature", "T5 sequence (looked up)": "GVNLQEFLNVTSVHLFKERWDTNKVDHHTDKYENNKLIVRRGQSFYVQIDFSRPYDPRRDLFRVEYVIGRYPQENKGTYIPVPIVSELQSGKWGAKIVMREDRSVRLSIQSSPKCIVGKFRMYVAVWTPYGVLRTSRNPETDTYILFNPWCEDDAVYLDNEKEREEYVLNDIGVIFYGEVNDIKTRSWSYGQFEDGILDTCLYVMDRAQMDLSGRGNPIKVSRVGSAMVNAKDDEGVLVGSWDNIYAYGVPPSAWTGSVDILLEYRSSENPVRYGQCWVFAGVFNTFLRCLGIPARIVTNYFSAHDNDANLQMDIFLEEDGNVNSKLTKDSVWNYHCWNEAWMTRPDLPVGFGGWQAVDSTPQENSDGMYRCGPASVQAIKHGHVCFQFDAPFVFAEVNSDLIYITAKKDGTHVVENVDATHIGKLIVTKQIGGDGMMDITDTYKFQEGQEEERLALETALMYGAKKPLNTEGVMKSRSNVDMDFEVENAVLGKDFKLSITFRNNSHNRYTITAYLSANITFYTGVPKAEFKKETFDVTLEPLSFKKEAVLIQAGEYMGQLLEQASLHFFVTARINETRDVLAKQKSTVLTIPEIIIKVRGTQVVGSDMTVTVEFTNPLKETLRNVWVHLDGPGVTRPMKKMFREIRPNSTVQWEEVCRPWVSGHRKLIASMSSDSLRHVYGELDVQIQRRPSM", "experiment": "SPR (Biacore T100), rSimukunin immobilized on CM5"}, "[11]": {"target": "T6, coagulation Factor X (FX), zymogen precursor of FXa (UniProt P00742 41-488)", "T6 construct": "mature; also called zymogenic form of FX", "T6 sequence (P00742 41-488 limits assumed)": "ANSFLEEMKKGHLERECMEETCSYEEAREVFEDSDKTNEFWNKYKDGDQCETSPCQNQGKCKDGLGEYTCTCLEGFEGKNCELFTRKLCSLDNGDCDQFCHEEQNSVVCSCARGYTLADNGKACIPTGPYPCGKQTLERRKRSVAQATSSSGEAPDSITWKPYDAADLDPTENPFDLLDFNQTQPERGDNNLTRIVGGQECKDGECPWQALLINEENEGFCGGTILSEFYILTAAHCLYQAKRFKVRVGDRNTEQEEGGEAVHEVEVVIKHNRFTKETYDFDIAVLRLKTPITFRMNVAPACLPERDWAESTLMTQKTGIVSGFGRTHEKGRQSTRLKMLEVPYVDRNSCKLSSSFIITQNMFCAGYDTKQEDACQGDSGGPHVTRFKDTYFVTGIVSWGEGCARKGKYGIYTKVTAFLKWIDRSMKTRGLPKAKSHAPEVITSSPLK", "experiment": "SPR (Biacore T100), rSimukunin immobilized on CM5"}, "[12]": {"target": "T3, human activated coagulation factor X …", "experiment": "SPR (Biacore T100), rSimukunin immobilized on CM5, FXa as analyte, 1:1 Langmuir fit", "description": "(§1) Data were fitted using a […] binding model (Langmuir). RU: resonance units.\n(§2) Surface plasmon resonance (SPR) assays. SPR experiments were conducted using a T100 instrument (Biacore Inc., Uppsala, Sweden) following the manufacturer's instructions. Sensor CM5, amine coupling reagents, and buffers were also purchased from Biacore Inc. (Piscataway, N.J., USA). IBS P (10 mM Hepes, pH 7.4, 150 mM NaCl, and 0.005% (v/v) P20 surfactant) was used as the running buffer for all SPR experiments, which were carried out as previously described (Albrecht et al., 1983, Hoppe Seylers Z Physiol Chem; 364:1697-1702). For analytes, FVIIa (recombinant) was purchased from American Diagnostica (Stamford, Conn.); FX, FXa (human, bovine, mouse), DEGR-FXa (human), des-Gla-FXa (human), FIXa, FXIa, FXIIIa, and thrombin were purchased from Haematologic Technologies, Inc. (Essex Junction, Vt.); elastase (purified from human sputum) was purchased from Molecular Innovations, Inc. (Novi, Mich.). All enzymes were of the highest available purity. For immobilization and kinetic analysis, rSimukunin (10 μg/ml) in acetate buffer pH 5.0 was immobilized over a CM5 sensor via amine coupling, resulting in a final immobilization of 475.3 RU. Kinetic experiments were carried out with a contact time of 180 seconds at a flow rate of 30 μl/minute at 25° C. rSimukunin-FXa complex dissociation was monitored for 1800 seconds, and the sensor surface was regenerated by a pulse of 30 seconds of 20 mM HCl at 30 μl/minute. In other experiments, other coagulation factors or enzymes were used as analytes. Blank flow cells were used to subtract the buffer effect on sensorgrams."}, "[13]": {"target": "T1, elastase (human; for SPR purified from …)", "experiment": "SPR (Biacore T100), rSimukunin immobilized on CM5, elastase as analyte, 1:1 Langmuir fit", "description": "as §1, §2"}, "[14]": {"target": "T1, elastase (human; for SPR purified from …)", "experiment": "calculated by Cheng-Prusoff from the enzyme-inhibition IC50 and the substrate Km (250 uM substrate)", "description": "(§3) The Kₘ for the elastase substrate was 38.5±3.3 μM, and the estimated Kᵢ was ˜0.65 nM. For FXa the substrate Kₘ was 161.6±17.4 μM, and the estimated Kᵢ was ˜2.1 nM. For Cathepsin G the Kₘ was 188±20 μM, and the Kᵢ was 100 nM. A general chymotrypsin substrate was used to assess Cathepsin G activity; as this substrate is not optimized for Cathepsin G it is likely that our measurement of the Kᵢ underestimates the effect of rSimukunin. Further studies of the effect of rSimukunin on Cathepsin G will be performed.\n(§4) Enzymes, at the concentrations given in Table 1, were incubated with the indicated concentration of rSimukunin for five minutes at 30° C., followed by addition of substrate (250 μM final concentration). The amount of enzyme used in the assays was the lowest possible to give a linear substrate hydrolysis rate in the assays (r2>0.95). Substrate hydrolysis was followed in a Tecan Infinite M200 96-well plate fluorescence reader (Tecan group Ltd, Switzerland) using 365 nm excitation and 450 nm emission wavelength with a cutoff at 435 nm for 20 min at 30° C. Wells without enzyme were used to monitor spontaneous substrate hydrolysis and protease contamination in the inhibitor preparation. All experiments were performed in triplicate (for each enzyme and each concentration of the inhibitor). […]"}, "[15]": {"target": "T3, human activated coagulation factor X …", "experiment": "calculated by Cheng-Prusoff from the enzyme-inhibition IC50 and the substrate Km (250 uM substrate)", "description": "as §3, §4"}, "[16]": {"target": "T7, chymase (human) (human, UniProt P23946 22-247)", "T7 construct": "mature", "T7 sequence (looked up)": "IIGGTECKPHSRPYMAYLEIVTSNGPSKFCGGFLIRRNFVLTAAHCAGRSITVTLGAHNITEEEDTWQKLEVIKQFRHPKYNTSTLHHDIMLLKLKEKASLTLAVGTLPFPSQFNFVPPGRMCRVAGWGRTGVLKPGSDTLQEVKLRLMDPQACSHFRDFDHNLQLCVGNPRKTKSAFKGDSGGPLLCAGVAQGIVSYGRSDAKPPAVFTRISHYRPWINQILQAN", "experiment": "enzyme inhibition assay, fluorogenic peptide substrate, 500 nM rSimukunin, 1.8 nM enzyme", "description": "Serine protease inhibition assays. rSimukunin (500 nM) was first pre-incubated with each enzyme for 10 min before the addition of the corresponding substrate. The amount of enzyme used in the assays was the lowest possible to give a linear substrate hydrolysis rate in the assays (r²>0.95). After incubation for 5 min at 30° C., substrate hydrolysis rate was followed in a Tecan Infinite M200 96-well plate fluorescence reader (Tecan group Ltd, Switzerland) using 365 nm excitation and 450 nm emission wavelength with a cutoff at 435 nm for 20 min at 30° C. Wells without enzyme were used to monitor spontaneous substrate hydrolysis and protease contamination in the inhibitor preparation. A t-test was used for the statistical analysis of the observed inhibition in the presence of 500 nM rSimukunin and when p<0.05, it was considered as statistically significant.\nAll enzymes used were of human origin and of the highest available purity. […]"}, "[17]": {"target": "T2, cathepsin G (human)", "experiment": "calculated by Cheng-Prusoff from the enzyme-inhibition IC50 and the substrate Km (250 uM general chymotrypsin substrate)", "description": "as §3, §4"}}, "data": [{"binder": "B1", "values": [{"measurement": "Ratio of IC50 to enzyme concentration", "setting": "[1]", "value": 27.2}, {"measurement": "Ratio of IC50 to enzyme concentration", "setting": "[2]", "value": 32.5}, {"measurement": "Ratio of IC50 to enzyme concentration", "setting": "[3]", "value": 161}, {"measurement": "Ratio of IC50 to enzyme concentration", "setting": "[4]", "value": 1150}, {"measurement": "Ratio of IC50 to enzyme concentration", "setting": "[5]", "value": 3790}, {"measurement": "Ratio of IC50 to enzyme concentration", "setting": "[6]", "value": 6680}, {"measurement": "Ratio of IC50 to enzyme concentration", "setting": "[7]", "value": 52}, {"measurement": "Ratio of IC50 to enzyme concentration", "setting": "[8]", "value": 945}, {"measurement": "binding result", "setting": "[9]", "value": "no binding (tested: 200 nM)"}, {"measurement": "binding result", "setting": "[10]", "value": "no binding (tested: 200 nM)"}, {"measurement": "binding result", "setting": "[11]", "value": "no binding (tested: 200 nM)"}, {"measurement": "Kd", "setting": "[12]", "value": 3.07, "unit": "nM"}, {"measurement": "koff", "setting": "[12]", "value": 0.000303, "unit": "s⁻¹"}, {"measurement": "kon", "setting": "[12]", "value": 98700, "unit": "M⁻¹ s⁻¹"}, {"measurement": "Kd", "setting": "[13]", "value": 0.4, "unit": "nM"}, {"measurement": "koff", "setting": "[13]", "value": 0.0173, "unit": "s⁻¹"}, {"measurement": "kon", "setting": "[13]", "value": "4.3e+07", "unit": "M⁻¹ s⁻¹"}, {"measurement": "Ki", "setting": "[14]", "value": "~0.65", "unit": "nM"}, {"measurement": "Ki", "setting": "[15]", "value": "~2.1", "unit": "nM"}, {"measurement": "binding result", "setting": "[16]", "value": "binds"}, {"measurement": "Ki", "setting": "[17]", "value": 100, "unit": "nM"}]}]}
